Experimental data taken from the DeepSol protein solubility set.

assay: soluble on expression in E. coli; label from the status in PepcDB or PDB records

| Sequence | soluble on expression in E. coli |
| --- | --- |
| MSKKKQDVSIVRSSAAEYLTFIAAMGDQSQSVEMRYEDENIWLTQKMMASLYDVTVPAINQHLKRIFDDGELLPEAVLKDYLITAADGKQYRTKHYNLQAIISVGFKINNVRAVQFRKWAGQIVKDYTIQGWTMDVERLKKGHLFTDEYFDRQLEYIREIRLSERKFYQKVTDLYATAFDYDKDALTTREFFALVQNKLHWAVHRHTAAELIVSRADAGRTNMGLTHWAAAPQGKIIKSDVSIAKNYLNVQEMEYLERIVSIYLDFAELQAMRKIPMSMQDWARRLDGFLEFNGNEILMGPGKVSQEQAKLHAESEFEQYRIVQDRLFQSDFDRLLLQLESKNKEEGQ | not soluble |
| MSLRASVAATKQKRFVAVDIETTGLNTESDQILSIGAVKHDGIEFYRLIKQDIDVPKQIVELTGITSEMLSKEGVPLQDALEELTDFVGNVPIVGYNFRFDSVFLNRDYRKCGMQELKNEIKDLLPVVKRREKFLDNYKLQTVLSNYGIENKVPHNAVSDARATKELAMKLIKNRILVIEGHHHHHH | soluble |
| MGHHHHHHSHSKEITVRGHNCPKPVLNFYEANFPANVMDVIARQNFTEPTAIQAQGWPVALSGLDMVGVAQTGSGKTLSYLLPAIVHINHQPFLERGDGPICLVLAPTRELAQQVQQVAAEYCRACRLKSTCIYGGAPKGPQIRDLERGVEICIATPGRLIDFLECGKTNLRRTTYLVLDEADRMLDMGFEPQIRKIVDQIRPDRQTLMWSATWPKEVRQLAEDFLKDYIHINIGALELSANHNILQIVDVCHDVEKDEKLIRLMEEIMSEKENKTIVFVETKRRCDELTRKMRRDGWPAMGIHGDKSQQERDWVLNEFKHGKAPILIATDVASRGLDVEDVKFVINYDYPNSSEDYIHRIGRTARSTKTGTAYTFFTPNNIKQVSDLISVLR | not soluble |
| MGHHHHHHSHMDKNVISVKIMEEKRDESTGVIYRKRIAICQNVVPEILRKVSILKVPNIQLEEESWLNPRERNMAIRSHCLTWTQYASMKEESVFRESMENPNWTEFIQRGRISITGVGFLNCVLETFASTFLRQGAQKGIRIMEMLLKEQCGAPLAE | not soluble |
| MKPVKAKCEVCEHMFRVQMLTARLSNRVDKHYFICPSCKTEFISYYSNREMRQLQKEISNLYKGFRTCYTKEQAKVIQAKIDKKDLEFKWLRDILRTEIENNLPN | not soluble |
| MTADDSPSDRWGPRCTTRGPGSDPRFDVPVRGVDVGPETRCAHYHGPRDVIAIRFACCDVFYPCHRCHEETATHPPERWPHDQFNASAVLCGRCRTVLTIEQYLDADHTCPACGAAFNPNCARHHDRYFCVGLEHHHHHH | not soluble |
| MDNLQKYKPTDKMIDLISDNYSLLQVMSRFGLSLGFGDKTVKEVCELNGVDCRTFLIVVNFMSEGFSRMDGSSEDISIPALIDYLRQAHIYFLDFSLPAIRRKLIEAIDCSQDDVAFLILKFFDEYTREVRKHMDYEEKTVFKYVDALINGNAPRNYQISTFSKHHDQVGEKLTELKNIIIKYCPAKANENLLNAALFDIYACEAGLESHCKVEDYIFVPAILKLERRIRENEK | not soluble |
| MIKLENELLLVEMKEAGAELTRIFHKDTKLEYLWNADSTFWGRHSPVLFPTVGRLVEDTYFVDGNPYHLGQHGFARDRDFKVVEHTENAVRFELDADEDSLTIYPYKFKLSIIYTIEKDSVAVSYEVENTDNKRIYFSIGAHPAFNLPLADGTTFEDYYLDFGTEENLETLCLEGPYRSGKIEKVVNEPARYLPLSYDLFKNDALIFEGLKQKEITIKSDKTPHFVKVSFPEFPFVGVWTAKAGTPFLCIEPWYGIADGAGKSVELRDKAGIEHLEPEAVFASEYKITIGLEHHHHHH | not soluble |
| MASIVFSTIGNPKGYQKVTYEIDGEKFESNVSVLALRDLLKVDKTVVILGISVADVYNCKYADYRSCKECIIQNSKNDLGISESYVVAPNVYQKFKGKPDHYFTYIYYHSLRILEKEGINEVFIDTTHGINYMGVLAKEAIQLAVSAYAAKSEKEVKVSLYNSDPVGKDVSDTVKLHEIEAIKISPLSGLKYVTYQILNKDKNFFNKIFSDSVNAIPRFATALDNGLFIYLSEKDSSLHLKRLEDDLSKDPLLTPSENEINVVYKDMKYALSHALFYVISRFSGNVDLDTLRHYAETYADKVTRAIIENEVDKIEKYQMGSERKLLGEYMKVEGKGFDKRILYAHGGLPYAGTYVYKEKDKVYVTYGDKIDEIERQI | soluble |
| MSLTPVISAYNWVPPPARGLVRDLRIRWALEELGRPYAVETVLHQDKTAYRAKQPFGQVPAYDDGEVQLFESGAIVLHIAEQDERLLPRDPAARARAIGWMFCALNTLEVPLLQLAELNIFSAGQAWTEGARPKVERWVRQRLGQLAARLGDKTYLDGETFTAGDLLVADVLRQAPDAMLAETPTLVAYRDRCTARPAFQKALAAQLADLNGPPPPGWGEGHHHHHH | soluble |
| GMSTSPADTARYNRFVADLFGMMAYGELSAFERFSADARYSPTLHDRAVLGRIAVVEFRHYELVSARLEAMGIDAEDAMLPFQAAVDYFHSRTRPADWYESLMKAYVIDTVSADFYRAISRYVDAGTRDVIEQIQASDETTEVLRERLRSALADDPRLASRLALWGRRLLGEALTQAQRVSYEHAFLGSLIGGEDSAAAKELVSGLIAGLAEKHSKRMTQLGLTG | soluble |
| METIFEDEETMMAAEQSSSGISANSNSNCSASKTEKASKKPKNAIPKVKNSGIHKKPAKSDFDEFLSSMKSRLSQATSMKSNKEQLKMLEETQKLIFDRITKSADARDMEHLEKQMNKL | soluble |
| AHHHHHHGSKRVWLVIPDTNFLFIPGQFGVDIISELERILDVNYKIVIPNIVLEELKTILREGKLRGKDLIAARMALKLAERFPTIYVGDFMSKTTDELIYEFAISNDNVIVCTNDKQLRKRLREAGVPVVFLRQKKKLELEGMLG | soluble |
| MSTNEITKRLPNLTSRRALLLYSLPVLVAIGVSHSLKESSLTKTIALNLPESQVVERILDATTAEVVTPPNFEYQIQAGDNLSTIFSQLGFGYSSLMKVMETDLNYLALDTLKPGNTLRFWRNDATGELEKMELQFSIADKVVYQLNSDGGYDFTDISIPGVWRQEPLVGVIQGSFSSSANRLGLSSAEISQVVSLLKEQVNFGRDLRAGDRFEVVRRSQTINGVSTGKNEIEAIKIYNRGREITAYLHTDGQFYNAKGESLQRAFQRYPVSRSWRISSGFNPNRLHPVTGRVAP | not soluble |
| MAHHHHHHMDAPEWTKDAQSIQGAKDYVRQASIVDFYEMICRNIFTHHPANLTEFCLRIVKDIMNGTEITSAADFQPKRIDDNKYMRDMAMCSFLDGWILELLRERPGTHLERMEFHKRYLEGLQSESDTGK | soluble |
| NPVENYIDEVLNEVLVVPNINSSNPTTSNSAPALDAAETGHTSSVQPEDVIETRYVQTSQTRDEMSLESFLGRSGCIHESKLEVTLANYNKENFTVWAINLQEMAQIRRKFELFTYTRFDSEITLVPCISALSQDIGHITMQYMYVPPGAPVPNSRDDYAWQSGTNASVFWQHGQAYPRFSLPFLSVASAYYMFYDGYDEQDQNYGTANTNNMGSLCSRIVTEKHIHKVHIMTRIYHKAKHVKAWCPRPPRALEYTRAHRTNFKIEDRSIQTAIVTRPIITTAGPSDMY | soluble |
| MGSDKIHHHHHHSDIASSVNGGSNRLADGGDFELGMSVYGINQIDVRQTGSGTAQLSLLVSGMYQYKGMFVEMIHQSQDGVNLGVNLWSSEDWSFDLLLANLQGSWSRPDLDPSTLDEAGRNAYLLSEDSLYIGAGFRATRYWGDNYVFQYRLVSDYYDDQGIQSSARLGKSWQVRNWNFHVLGSVGYSSATLNRYLFGVSKEEATELFPEYHPSSSFSYGMELGVAYPLSESFVFRAMYRFNVLSKEVTDSPFNQAGYASFFNASISYVF | not soluble |
| MKIVLISGLSGSGKSVALRQMEDSGYFCVDNLPLEMLPALVSYHIERADETELAVSVDVRSGIDIGQAREQIASLRRLGHRVEVLFVEAEESVLVRRFSETRRGHPLSNQDMTLLESLKKEREWLFPLKEIAYCIDTSKMNAQQLRHAVRQWLKVERTGLLVILESFGFKYGVPNNADFMFDMRSLPNPYYDPELRPYTGMDKPVWDYLDGQPLVQEMVDDIERFVTHWLPRLEDESRSYVTVAIGCTGGQHRSVYIVEKLARRLKGRYELLIRHRQAQNLSDR | not soluble |
| MKFLRIEDEVIYSKKRYKLKREIDKLFLDEEYFQIEPQLFEEYDEFTTINNKIPEESMVKVVNGKVMVLRADITTSIIKSLVPRWEDGLKLKLFYNSSIYKNKNTVGIKEIRQIGCEYLGEASVEADREVVKLALKILEKYNNNFILEVGSSKYIHGLLEELNLNKNCENQIKNLLYTKNTHELKVYIEELKIKHEVKELLSNILSLQGNLYNVIEKSNKFYCNNKMKQALEELKQVNNLIEECNFLDKARFDLSMITMLDYYEGIMFRGYYPNSYKEILSGGRYDSLTKEYGKEIPAIGFTLSVDELMKYVYK | soluble |
| VPVPPAADHKGWDFVEGYFHQFFLTKKESPLLTQETQTQLLQQFHRNGTDLLDMQMHALLHQPHCGVPDGSDTSISPGRCKWNKHTLTYRIINYPHDMKPSAVKDSIYNAVSIWSNVTPLIFQQVQNGDADIKVSFWQWAHEDGWPFDGPGGILGHAFLPNSGNPGVVHFDKNEHWSASDTGYNLFLVATHEIGHSLGLQHSGNQSSIMYPTYWYHDPRTFQLSADDIQRIQHLYGEKCSSDIP | soluble |
| LVPRGSAMGISNDSSRGANRTIVVTTILESPYVMYKKNHEQLEGNERYEGYCVDLAYEIAKHVRIKYKLSIVGDGKYGARDPETKIWNGMVGELVYGRADIAVAPLTITLVREEVIDFSKPFMSLGISIMIKKGTPIESAEDLAKQTEIAYGTLDSGSTKEFFRRSKIAVYEKMWSYMKSAEPSVFTKTTADGVARVRKSKGKFAFLLESTMNEYIEQRKPCDTMKVGGNLDSKGYGVATPKGSALGTPVNLAVLKLSEQGILDKLKNKWWYDKGECG | soluble |
| AEVRPPFTYASLIRQAILESPEKQLTLNEIYNWFTRMFPYFRRNAATWKNAVRHNLSLHKYFVRVENVKGAVWTVDEVEFQKRRPQK | soluble |
| MGHHHHHHSHSAAKGTGITRKKTFKEVANAVKISASLMGTVMAKRVKATILYGSETGRAQSYAQQLGRLFRKAFDPRVLCMDEYDVVSLEHETLVLVVTSTFGNGDPPENGESFAAALMEMSGPYN | not soluble |
| MGSDKIHHHHHHASCEDDEVEYAPLAVTRVSTVLDREQGIDQANLAQYIIVQGTGLNAVNSILVNDVQVDLKDAYITSGEITFPIPRVIPGEINNLITLGSGNSTVTAPISVFIPELEVNGMFNEFTPAGDTMKVVGDYFDLYEITTESGQLFFGGKEVKITKSTGNSLSFVLPEDAVMGSKIKLVSPVCGEVTVPGKYMEKGNMLCDFDPFTGWGGSKYVIDGPVPAPYSGYFSRFKINKGDANDWDWNEVTTIAQCAVEYSPEVIADQNKYLLKFEVNTIKPLTKRQIRFYFSQINYDWEPFASGLALNTNGEWKTVSIDLGEMWKGDIPNDGVLQIMGNSWAEDTDICFDNFRIVPKD | not soluble |
| MASKKISLTKPKYQQIAVDVAEKIAEGKLHVGDKIHARSTLANQYQVSPETARKAIIVLVDLEIVKAKHGSGFYVASKEKAQDFVTQYQDVQTIAEIKEELLDSVAKQKEELTHFSSILDTLVEQTKRFDSFNPMNPYSLVLTEEAAYLEATISEMNFWQNTSATIIAIKHKEELLVSPGPYAKISLNDTLYFVGHDESTLQRVQNFFYP | not soluble |
